Literature values in article PMC5744648.

Assays:
[1] = molecular target: CMKLR1 (Chemerin1) (Homo sapiens) (UniProt Q99788); experiment: radioligand
[2] = molecular target: GPR1 (Chemerin2) (Homo sapiens) (UniProt P46091); experiment: radioligand binding
[3] = molecular target: CMKLR1 (Chemerin1) (Mus musculus) (UniProt P97468); experiment: radioligand binding
[4] = molecular target: GPR1 (Chemerin2) (Homo sapiens) (UniProt P46091); experiment: radioligand

Chemerin 21-157, sequence (Q99969 21-157): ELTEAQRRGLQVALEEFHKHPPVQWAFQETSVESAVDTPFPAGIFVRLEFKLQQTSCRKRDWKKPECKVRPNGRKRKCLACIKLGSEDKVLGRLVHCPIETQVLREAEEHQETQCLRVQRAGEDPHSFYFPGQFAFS
CMKLR1 (Chemerin1) (Homo sapiens), sequence (Q99788 whole entry): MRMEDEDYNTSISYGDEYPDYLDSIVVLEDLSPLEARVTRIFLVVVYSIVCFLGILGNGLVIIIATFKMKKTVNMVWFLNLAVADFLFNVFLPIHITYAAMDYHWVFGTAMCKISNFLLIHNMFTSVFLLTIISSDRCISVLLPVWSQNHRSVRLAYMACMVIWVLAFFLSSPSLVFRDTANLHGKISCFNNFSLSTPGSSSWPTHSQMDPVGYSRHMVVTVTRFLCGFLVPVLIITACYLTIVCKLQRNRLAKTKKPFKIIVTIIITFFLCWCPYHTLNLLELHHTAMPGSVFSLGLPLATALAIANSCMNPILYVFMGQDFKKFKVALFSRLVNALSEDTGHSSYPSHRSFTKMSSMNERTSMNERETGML
GPR1 (Chemerin2) (Homo sapiens), sequence (P46091 whole entry): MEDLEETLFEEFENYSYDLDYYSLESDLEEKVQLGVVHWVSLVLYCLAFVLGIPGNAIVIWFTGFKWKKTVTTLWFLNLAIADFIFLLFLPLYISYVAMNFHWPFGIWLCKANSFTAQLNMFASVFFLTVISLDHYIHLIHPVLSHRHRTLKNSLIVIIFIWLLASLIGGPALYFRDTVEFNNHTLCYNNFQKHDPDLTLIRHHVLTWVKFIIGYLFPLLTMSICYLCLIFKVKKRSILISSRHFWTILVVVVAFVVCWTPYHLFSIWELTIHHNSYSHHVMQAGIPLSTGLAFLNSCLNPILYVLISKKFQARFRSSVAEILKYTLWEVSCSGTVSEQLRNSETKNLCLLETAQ
Chemerin 21-148, sequence (Q99969 21-148): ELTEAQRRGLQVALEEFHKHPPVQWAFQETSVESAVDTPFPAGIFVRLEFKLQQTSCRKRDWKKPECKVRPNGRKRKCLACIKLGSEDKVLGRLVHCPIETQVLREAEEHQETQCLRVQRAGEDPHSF
Chemerin C9 peptide 149-157, sequence (Q99969 whole entry, looked up, tested part not stated): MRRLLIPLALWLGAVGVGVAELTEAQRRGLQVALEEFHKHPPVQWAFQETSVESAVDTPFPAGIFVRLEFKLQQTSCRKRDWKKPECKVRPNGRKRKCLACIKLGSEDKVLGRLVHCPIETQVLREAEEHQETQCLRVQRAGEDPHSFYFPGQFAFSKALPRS
CMKLR1 (Chemerin1) (Mus musculus), sequence (P97468 whole entry): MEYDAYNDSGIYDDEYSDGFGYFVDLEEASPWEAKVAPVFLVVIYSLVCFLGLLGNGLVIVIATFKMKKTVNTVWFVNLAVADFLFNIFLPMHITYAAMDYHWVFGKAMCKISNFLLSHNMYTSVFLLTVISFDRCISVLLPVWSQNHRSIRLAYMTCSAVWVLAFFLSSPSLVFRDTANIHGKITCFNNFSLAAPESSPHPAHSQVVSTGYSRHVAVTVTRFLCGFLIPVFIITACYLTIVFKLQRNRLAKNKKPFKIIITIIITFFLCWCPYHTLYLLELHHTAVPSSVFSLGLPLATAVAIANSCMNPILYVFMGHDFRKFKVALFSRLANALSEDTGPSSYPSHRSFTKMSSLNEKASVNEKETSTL

## Chemerin 21-157 (from UniProt Q99969)
[1]
  Kd: 0.88 nM
[2]
  Kd: 0.21 nM

## Chemerin 21-148 (from UniProt Q99969)
[3]
  Kd: 1.2 nM

## Chemerin C9 peptide 149-157 (from UniProt Q99969)
[4]
  Kd: 5.3 nM

## Tyr-[Phe149]-chemerin146-157 146-157 (from UniProt Q99969)
[1]
  Kd: 22 nM
